T1: NiV-G-Fc, a fusion construct between the ectodomain of NiV-G and the Fc region of human IgG1 (Nipah virus, UniProt Q9IH62 71-602)
T1 chain: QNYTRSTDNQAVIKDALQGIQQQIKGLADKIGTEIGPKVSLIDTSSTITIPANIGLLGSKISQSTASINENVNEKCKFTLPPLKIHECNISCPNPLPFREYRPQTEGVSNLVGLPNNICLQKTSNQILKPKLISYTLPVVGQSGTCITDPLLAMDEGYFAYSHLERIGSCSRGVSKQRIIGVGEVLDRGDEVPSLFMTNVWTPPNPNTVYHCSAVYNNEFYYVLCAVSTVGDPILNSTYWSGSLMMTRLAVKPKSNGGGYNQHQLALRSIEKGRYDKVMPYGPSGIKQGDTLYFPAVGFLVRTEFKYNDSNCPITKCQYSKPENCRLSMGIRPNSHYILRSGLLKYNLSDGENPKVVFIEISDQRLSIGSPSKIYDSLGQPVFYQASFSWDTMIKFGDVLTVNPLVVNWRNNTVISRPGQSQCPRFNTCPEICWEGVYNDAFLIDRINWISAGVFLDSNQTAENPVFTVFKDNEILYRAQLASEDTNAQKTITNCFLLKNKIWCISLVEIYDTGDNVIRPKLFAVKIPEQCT


Target: T1, NiV-G-Fc, a fusion construct between …
Assay: SPR

Row | Binder | Kd
1 | ephrinB3-Fc (soluble Fc-fusion ephrin protein, purchased) (Fc fusion) LSLEPVYWNSANKRFQAEGGYVLYPQIGDRLDLLCPRARPPGPHSSPNYEFYKLYLVGGAQGRRCEAPPAPNLLLTCDRPDLDLRFTIKFQEYSPNLWGHEFRSHHDYYIIATSDGTREGLESLQGGVCLTRGMKVLLRVGQSPRGGAVPRKPVSEMPMERDRGAAHSLEPGKENLPGDPTSNATSRGAEGPLPPPSMP | 2.83 nM
2 | ephrinB2-Fc (soluble Fc-fusion ephrin protein, purchased) (Fc fusion) RSIVLEPIYWNSSNSKFLPGQGLVLYPQIGDKLDIICPKVDSKTVGQYEYYKVYMVDKDQADRCTIKKENTPLLNCARPDQDVKFTIKFQEFSPNLWGLEFQKNKDYYIISTSNGSLEGLDNQEGGVCQTRAMKILMKVGQDASSAGSARNHGPTRRPELEAGTNGRSSTTSPFVKPNPGSSTDGNSAGHSGNNLLGSEVA | 0.11 nM

From publication PMC1361355 (2006)
